Data from patent US20130143299A1.

Target: human Erk2 (extracellular signal-regulated kinase 2), purchased from Sigma (human), P28482
Test: ELISA, purified clone 500 ng/well on immobilised antigen, anti-FLAG-HRP detection

human Erk2 (extracellular signal-regulated kinase 2), purchased from Sigma (human), P28482, sequence (P28482 whole entry): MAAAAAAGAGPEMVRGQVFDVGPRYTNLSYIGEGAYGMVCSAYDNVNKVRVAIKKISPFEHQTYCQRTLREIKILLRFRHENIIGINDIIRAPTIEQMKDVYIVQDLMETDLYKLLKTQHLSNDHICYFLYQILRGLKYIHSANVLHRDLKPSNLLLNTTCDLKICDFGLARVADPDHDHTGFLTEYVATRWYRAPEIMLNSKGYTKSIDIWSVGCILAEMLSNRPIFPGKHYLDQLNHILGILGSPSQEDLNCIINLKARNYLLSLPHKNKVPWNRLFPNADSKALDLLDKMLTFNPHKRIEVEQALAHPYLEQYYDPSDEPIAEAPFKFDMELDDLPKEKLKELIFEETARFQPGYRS

B1: Erk2-binding clone group J (RNF8-FHA domain-modified protein) (designed binder, not shown: large carriers)
chain: GEPGFFVTGDRAGGRSWCLRRVGMSAGWLLLEDGCEVTVGFGTGVTYQLVSKYLPSWFTYNHCVLKQNPEGQWTIMDNKSLTGVWLNRARLEPLRVYSIHQGDYIQLGSLREXSENAEYEYEVTEEDWETIYPCLSPKNDQMIEKN
modifications: not fully specified; X: residue not identified in the source; also: N-terminal MBP-Strep/FLAG fusion partner, sequence not given here
**Q.** Which ELISA (S/N) does the source give for B1 here?
**A.** Its ELISA (S/N) is 25.6 S/N.
